Reference: US20120114659A1 (published 2012)

Target: T1, human NPRA on HEK cells loaded with BNP (human, UniProt P16860 103-134)
T1 sequence: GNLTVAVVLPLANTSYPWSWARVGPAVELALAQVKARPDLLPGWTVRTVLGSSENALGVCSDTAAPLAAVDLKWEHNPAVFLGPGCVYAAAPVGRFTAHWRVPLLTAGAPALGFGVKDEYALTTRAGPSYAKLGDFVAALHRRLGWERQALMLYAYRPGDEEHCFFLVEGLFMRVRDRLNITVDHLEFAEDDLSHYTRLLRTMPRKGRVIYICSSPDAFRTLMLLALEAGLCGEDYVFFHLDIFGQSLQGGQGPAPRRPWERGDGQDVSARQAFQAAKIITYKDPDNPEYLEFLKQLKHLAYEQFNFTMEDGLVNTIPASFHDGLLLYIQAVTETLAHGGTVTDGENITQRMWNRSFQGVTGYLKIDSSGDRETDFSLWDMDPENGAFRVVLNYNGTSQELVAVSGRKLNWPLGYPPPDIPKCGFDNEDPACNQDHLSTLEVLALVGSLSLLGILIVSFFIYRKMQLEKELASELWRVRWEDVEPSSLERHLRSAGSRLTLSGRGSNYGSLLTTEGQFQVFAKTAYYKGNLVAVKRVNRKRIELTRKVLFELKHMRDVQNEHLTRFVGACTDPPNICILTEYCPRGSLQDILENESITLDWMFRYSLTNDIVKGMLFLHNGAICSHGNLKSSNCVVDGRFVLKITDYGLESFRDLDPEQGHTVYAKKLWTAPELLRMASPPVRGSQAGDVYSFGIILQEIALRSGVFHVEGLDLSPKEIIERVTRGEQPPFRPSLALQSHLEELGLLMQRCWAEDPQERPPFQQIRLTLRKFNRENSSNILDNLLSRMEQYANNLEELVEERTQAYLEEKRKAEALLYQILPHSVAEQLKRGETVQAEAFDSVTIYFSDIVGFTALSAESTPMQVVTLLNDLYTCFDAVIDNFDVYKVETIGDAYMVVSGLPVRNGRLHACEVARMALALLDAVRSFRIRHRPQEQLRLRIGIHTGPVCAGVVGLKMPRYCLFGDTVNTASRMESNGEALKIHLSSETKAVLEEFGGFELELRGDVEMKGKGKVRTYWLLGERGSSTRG
T1 sequence (peptide): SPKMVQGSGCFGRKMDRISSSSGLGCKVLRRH
Test: cell-based or functional assay

B1: 5064 Fab (Fab, V domains shown)
VH: QVQLQQSGPGLVKPSQTLSLTCAISGDSVSSRSASWSWIRQSPGRGLEWLGRIYYRSKWYNDYAVSVKSRITINPDTSKNQFSLQLNSVTPEDTAVYYCARMDVPSFRYFDVWGQGTLVTVSS
VL: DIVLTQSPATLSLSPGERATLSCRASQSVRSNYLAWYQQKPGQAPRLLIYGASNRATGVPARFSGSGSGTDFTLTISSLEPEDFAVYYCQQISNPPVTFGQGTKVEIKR
Which “fold decrease of the EC50 of BNP (cGMP, HEK NPRA cells, 400 nM Fab)” value does the source give for B1 here?
Its value is 2 fold.
